Experimental data as given in US20210395361A1 (Alector, published 2021).
Numbering of substitutions follows the chain as printed. Values belong to the binder of their own block, whether it stands above or below them.

Assays:
[1] = molecular target: T1, Histidine-tagged human Siglec-5 (NovoProtein) (human, UniProt O15389 17-434, limits assumed); experiment: array SPR, antibody immobilized, His-tagged human Siglec-5 (0-500 nM) in solution; apparent affinity
T1 construct: Bought soluble protein; also called His-tagged human Siglec-5; not shown: histidine tag
T1 sequence: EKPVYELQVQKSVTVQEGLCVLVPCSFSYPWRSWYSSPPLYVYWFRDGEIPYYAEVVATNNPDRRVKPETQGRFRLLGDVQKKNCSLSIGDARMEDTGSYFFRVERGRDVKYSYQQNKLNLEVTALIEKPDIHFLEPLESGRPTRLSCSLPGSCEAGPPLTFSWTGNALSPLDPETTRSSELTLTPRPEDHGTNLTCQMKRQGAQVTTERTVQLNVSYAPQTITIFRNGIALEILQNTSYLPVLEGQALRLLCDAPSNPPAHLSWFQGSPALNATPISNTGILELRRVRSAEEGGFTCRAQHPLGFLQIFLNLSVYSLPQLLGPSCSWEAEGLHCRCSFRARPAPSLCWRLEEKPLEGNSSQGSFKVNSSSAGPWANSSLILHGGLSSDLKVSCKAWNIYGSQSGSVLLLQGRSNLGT
Method: The apparent binding affinities of the anti-Siglec-5 antibodies were measured by array surface plasmon resonance (SPR), according to standard techniques (Abdiche, et al. (2016) MAbs 8:264-277). Briefly, anti-Siglec-5 antibodies were immobilized on a HC 30M chip at four different densities, at antibody concentration of 10 μg/mL, 2.5 μg/mL, 0.63 μg/mL, and 0.16 μg/mL. Varying concentrations (0-500 nM) of Histidine-tagged human Siglec-5 or cynomolgus Siglec-5 (NovoProtein) were then bound to the captured anti-Siglec-5 surface (5 min injection time, 15 min dissociation time) in HBS-EP⁺/1 mg/mL BSA running buffer. Kinetic analysis was performed using Carterra software to extract association and dissociation rate constants (kₐ and kd, respectively) for each antibody. Apparent affinity constants (KD) were calculated from the ratio kd/kₐ. None of the anti-Siglec-5 antibodies bound to cynomolgus Siglec-5 protein.

[2] = molecular target: T2, human Siglec-14 (human, UniProt Q08ET2 17-396); experiment: FACS, CHO cells stably transfected with human Siglec-14 (CHO-S14), fluorescent secondary antibody; y-axis Binding (Fold over background); antibody concentration not shown
T2 construct: also called CHO-S14; CHO-S hSiglec-14
T2 sequence: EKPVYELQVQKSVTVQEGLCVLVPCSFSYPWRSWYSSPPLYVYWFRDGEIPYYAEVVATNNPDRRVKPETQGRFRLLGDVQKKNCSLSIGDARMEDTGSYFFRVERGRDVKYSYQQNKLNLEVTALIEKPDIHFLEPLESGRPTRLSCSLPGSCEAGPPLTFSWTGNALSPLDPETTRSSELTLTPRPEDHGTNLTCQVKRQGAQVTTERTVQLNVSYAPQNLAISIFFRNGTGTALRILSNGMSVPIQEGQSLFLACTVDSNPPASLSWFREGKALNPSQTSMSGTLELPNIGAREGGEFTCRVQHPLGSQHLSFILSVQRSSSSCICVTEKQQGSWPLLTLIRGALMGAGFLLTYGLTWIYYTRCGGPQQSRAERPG
Method: The anti-Siglec-5 antibodies were evaluated for their ability to bind to CHO cells which were stably transfected with human Siglec-5 (CHO-S5) or human Siglec-14 (CHO-S14). The anti-Siglec-5 antibodies were also evaluated for their ability to bind to primary human neutrophils. Cells were incubated with various dilutions of the anti-Siglec-5 antibodies for 30 minutes on ice in the dark, followed by a 30-minute incubation with a fluorescently-conjugated anti-human IgG secondary antibody. Cells were washed twice in FACS buffer (PBS+2% FBS, 2 mM EDTA), and flow cytometry was performed on a BD FACS Canto. Data were analyzed using FlowJo software (Ashland, Oreg.). In the figures, “hIgG1” and “mIgG1” refer to isotype control antibodies, and “S5/14 1A5” refers to a commercially available antibody that binds both Siglec-5 and Siglec-14 (BioLegend, clone 1A5).

Kd [1]: 61 nM
koff [1]: 0.0013 s⁻¹
kon [1]: 21000 M⁻¹ s⁻¹
binding result [2]: no binding
B1: S5-183 (antibody, V domains shown)
VH: QAYLQQSGPGLVAPSQSLSITCTVSGFSVTSYGVSWVRQPPGKGLEWLGVIWGDGSTNYHSDLISRLSISKDNSKSQVFLKLNSLQIADTATYYCARPRAFYYGSRGYWYFDVWGTGTTVAVSS
VL: DIVMTQSPASLSASVGETVTITCRASENIYSYLAWYQQKQGKSPQLLVYNTKTLVEGVPSRFSGSGSDTQFSLKINSLQPEDFGTYYCQHHYGPPPTFGTGTKLELK
notes: Mouse-derived variable domains; expressed in mammalian cells as full antibody; hIgG1 isotype control

Kd [1]: 31 nM
koff [1]: 0.0011 s⁻¹
kon [1]: 36000 M⁻¹ s⁻¹
binding result [2]: no binding
B2: S5-202 (antibody, V domains shown)
VH: B1 VH with F27L, V29L, D62A, I87T, A88D, R97K, R99G, G107Y, A121T
VL: DIQMTQAHKVMSTSVGDRVSITCKASQDVSTAVAWYQQKPGQSPKLLIYSASYRYTGVPDRFTGSGSGTDFTFTISSVQAEDLAVYYCQQHYSPPPTFGGGTRREIK
notes: Mouse-derived variable domains; expressed in mammalian cells as full antibody; also called S5-PN202

Kd [1]: 5.3 nM
koff [1]: 0.00085 s⁻¹
kon [1]: 160000 M⁻¹ s⁻¹
binding result [2]: no binding
B3: S5-182 (antibody, V domains shown)
VH: QAYLQQSGAELVKPGASVKLSCKASGYTFTSYWLHWVKQRPGQGLEWIGMIHPNSGSTDYNERFKSKATLIVDKSSSTAYMQLSSLTSEDSAVYYCAKTFYYFDYWGQGTALTVSS
VL: DVVMTQSPSSMYASLGERVTITCKASQDINSYLSWFQQKPGKSPKTLIYRANRLVDGVPSRFSGSGSGQDYSLTISSLEYEDMGIYYCLQYDELYTFGGGTKLEIK
notes: as for B1
